Substrate: Cc1cc(=O)oc2c(F)c(OP(=O)(O)O)c(F)cc12
Experiment: enzyme kinetics, fluorescence of DiFMU product; KM
Format: biochemical, Homo sapiens
Details: Mn2+ ([…] MnCl2 in buffer)

B1: protein phosphatase-1 catalytic subunit beta (PPP1CB) (Homo sapiens) (protein)
chain: MADGELNVDSLITRLLEVRGCRPGKIVQMTEAEVRGLCIKSREIFLSQPILLELEAPLKICGDIHGQYTDLLRLFEYGGFPPEANYLFLGDYVDRGKQSLETICLLLAYKIKYPENFFLLRGNHECASINRIYGFYDECKRRFNIKLWKTFTDCFNCLPIAAIVDEKIFCCHGGLSPDLQSMEQIRRIMRPTDVPDTGLLCDLLWSDPDKDVQGWGENDRGVSFTFGADVVSKFLNRHDLDLICRAHQVVEDGYEFFAKRQLVTLF
- Km: 186.2 µM
- Vmax: 3.4 µM/min
- kcat: 38.3 s⁻¹
- kcat/Km: 210000 M⁻¹ s⁻¹

From publication PMC8775935, “Chebulinic Acid Suppresses Adipogenesis in 3T3-L1 Preadipocytes by Inhibiting PPP1CB Activity” (International Journal of Molecular Sciences, 2022)
